Measurements published in the DeepSol protein solubility set.

Test: soluble on expression in E. coli; label from the status in PepcDB or PDB records

Row | Sequence | soluble on expression in E. coli
1 | MPRLFLTSDLDSFPVTPQGCSVTLACGVRLQFPAGATATPITIRYRLLLPEPGLVPLGPHDALLSHVLELQPHGVAFQQDVGLWLLFTPPQARRCREVVVRTRNDNSWGDLETYLEEEAPQRLWAHCQVPHFSWFLVVSRPVSNACLVPPEGTLLCSSGHPGVKVIFPPGATEEPRRVSMQVVRMAGRELQALLGEPEAAVSPLLCLSQSGPPSFLQPVTVQLPLPSGITGLSLDRSRLHLLYWAPPAATWDDITAQVVLELTHLYARFQVTHFSWYWLWYTTKNCVGGLARKAWERLRLHRVNLIALQRRRDPEQVLLQCLPRNKVDATLRRLLERYRGPEPSDTVEMFEGEEFFAAFERGIDVDADRPDCVEGRICFVFYSHLKNVKEVYVTTTLDREAQAVRGQVSFYRGAVPVRVPEEAEAARQRKGADALWMATLPIKLPRLRGSEGPRRGAGLSLAPLNLGDAETGFLTQSNLLSVAGRLGLDWPAVALHLGVSYREVQRIRHEFRDDLDEQIRHMLFSWAERQAGQPGAVGLLVQALEQSDRQDVAEEVRAVLELGRRKYQDSIRRMGLAPKDPALPGSSAPQPPEPAQA | soluble
2 | MSELFKKLMDQIEMPLEIKNSSVFSSADIIEVKVHSLSRLWEFHFSFPELLPIEVYRELQTRLVNSFEKADIKATFDIRAETIDFSDDLLQDYYQQAFCEPLCNSASFKSSFSQLKVHYNGSQMIISAPQFVNNNHFRQNHLPRLEQQFSLFGF | not soluble
3 | MQIKLANPRGFCAGVDRAIEIVNRALEVFGPPIYVRHEVVHNKFVVEDLRSRGAIFVEELEQVPDDVIVIFSAHGVSQAVRTEAAGRGLKVFDATCPLVTKVHIEVARYSRDGRECILIGHAGHPEVEGTMGQYDAVNGGAIYLVEDEADVASLEVRNPESLAFVTQTTLSMDDTSRVIDALRKRFPAIGGPRKDDICYATQNRQDAVKQLADECDVVLVVGSPNSSNSNRLRELAERMATPAYLIDGAEDMQKGWFDGVERIGITAGASAPEVLVRGVIQQLQAWGATGADELAGREENITFSMPKELRVKSLLLEHHHHHH | not soluble
4 | MSTGATIVIDLGKTLSKVSLWDLDGRMLDRQVRPSIPLEIDGIRRLDAPDTGRWLLDVLSRYADHPVTTIVPVGHGAGIAALTDGRLAFPPLDYEQSIPEAVMADYRSQRDPFARTGSPALPDGLNIGSQLWWLDQLHPDVMANATLLPWAQYWAWFLTGRAVSEVTSLGCHSDLWDPQDGDFSPMAKRLGWAARFAPIVRAGDTVGALLPAIAERTGLSPDVQVLAGLHDSNAALLAARLEHHHHHH | not soluble
5 | MSLSKSLQKPTILNVETVARSRLFTVESVDLEFSNGVRRVYERMRPTNREAVMIVPIVDDHLILIREYAVGTESYELGFSKGLIDPGESVYEAANRELKEEVGFGANDLTFLKKLSMAPSYFSSKMNIVVAQDLYPESLEGDEPEPLPQVRWPLAHMMDLLEDPDFNEARNVSALFLVREWLKGQGRVEGGSHHHHHH | soluble
6 | MATRLNISFDSDLLESISSEFDLRAPNKEALRQLVFTLDGDYEPSIMQVLNLATGVGKTYLMAAFVEYLRRQGVGNVVIVTPGKTVQAKTVQNFTPGSPRYITGSVVPPEVVTPQDYSAWVARQNGAAQLSFGHEVPILAFIFNIQQLIAPKSTEGDTHGNTQDAMRRKPRRFDENAGVLFDYLKGLDDLVVIADESHLYGSSAIAFNAALKELDPAATIGLTASVDKKSDHVIYHYPLFRAIQDKYVKAPVLAFRKTGYGTDEASEEQQLRDALQLRSIKQVYYDSFAASENRKHVNAVVFVVCSDVDHATQVTELLRSPEYLGNDDAVLQVDSKHEDELTQRRLNELDRPHSPVLAVVSVNKLKEGWDVRNIAVVVTLRAMASEVLTQQTMGRGLRLPFGHYTGVWQIDQLDIIAHQSFTELLNAENVLHQFGLEEAVADLDKAQVEAAILKAAETATSPRLGTSLTDTGVIQPGDVAAHEAGVWLIGDSSNSDDLQAGIVPVGGENSTRTPSVGVREITDPAPEGGTGWELVSIERNPAFADVTYQFPVTTMTVQQPSIDLSEIGDDTIEQAARRVTSAGDVLLRKEIIAVLGKKLRAEDRESAEVDSVHVDEDDAKNALVKLVLNMSLVPKTEQTARYVAAFLVPKFMQSVMFSGWTVKSLDSARTELLKLIQNYTVETLRSTREVPSIHPKSMPSNGYTLPLGQKVHDQIETREQFVRSQVYGGWFKSLFAEESFDSFTGEYQLARLLNTSPGIVWWHRLHPQDQAFVFYNAKDRYFPDFVAMDVNGVHWIIEGKSERGRDDAQVQAKRKAAEALVRRLVAEDAYADQLWGYLIAYEQDIARADSWEDLKAFASPVNNAL | not soluble
7 | MFCVRCGSSDSELYEGLCRDCFLEDYSILRIPDRIEVRVCSHCRAKFISGQWLDEGLPDEEIVYRALEDSISWDEPVENPEIELEIMQERGTIYRCLVEVDAEVLGKRLSQEYEVEVRITNTVCPTCSKQSSGYYEAVIQLRADGRELAETEIETADRVVQRTLLKLSRRDKLAYLPQRVEVKEGVDYYIGSHKSARKVVDAIREKLGGITMESPRLMGQDKSTGKGLYRTWISLRLANFRVGDFLSHHNRILAVIDLRKKGVSVRDLETREVKNILWGEYEDMDVVGRADDVKTTTVTSRSPGMIQILHPETFEPVDLEADSYTSTLDIGEQVPVIEIDKRLYIIEDEAEELEHHHHHH | soluble
8 | MDKIIKSIAQSGAFRAYVLDSTETVALAQEKHNTLSSSTVALGRTLIANQILAANQKGDSKITVKVIGDSSFGHIISVADTKGHVKGYIQNTGVDIKKTATGEVLVGPFMGNGHFVTIIDYGTGNPYTSTTPLITGEIGEDFAYYLTESEQTPSAIGLNVLLDENDKVKVAGGFMVQVLPGASEEEIARYEKRLQEMPAISHLLASKNHVDALLEAIYGDEPYKRLSEEPLSFQCDCSRERFEAALMTLPKADLQAMIDEDKGAEIVCQFCGTKYQFNESDLEAIISDKA | not soluble
9 | GKLKKKGYLRIVTTQGSLNIELHADMAPRACDSFLRLCAVKYFDDTIFHRCIRNFMIQGGRAELRQPSKKKEVQQSPRSISGFPGGAPFEDEFDNRLVHQGIGVLSMANDGKHSNLSEFFITFKSCEHLNNKHTIFGRVVGGLDVLRQWEKLETDKKDKPLKPPKVEEIIVFKNPFEDARKEMEDEKREEEEKEKKKLENA | soluble
10 | MANRGGEYLYDELWKLCAGPLVDVPQAQERVYYFPQGHMEQLEASTQQVDLNTMKPLFVLPPKILCNVMNVSLQAEKDTDEVYAQITLIPVGTEVDEPMSPDPSPPELQRPKVHSFSKVLTASDTSTHGGFSVLRKHATECLPPLDMTQQTPTQELVAEDVHGYQWKFKHIFRGQPRRHLLTTGWSTFVTSKRLVAGDTFVFLRGENGELRVGVRRANLQQSSMPSSVISSHSMHLGVLATARHATQTKTMFIVYYKPRTSQFIISLNKYLEAMSNKFSVGMRFKMRFEGEDSPERRYSGTVIGVKDCSPHWKDSKWRCLEVHWDEPASISRPNKVSPWEIEPFVNSENVPKSVMLKNKRPRQVSEVSALDVGITASNLWSSVLTQPHEFAQSCITSQWSSPQQCHRDANEDAKKSDWLNNSYSVSNVAKDSTLNDQMVSPVEQKKPETTANYRLFGIDLMSSSLAVPEEKTAPMRPINISKPTMDSHSDPKSEISKVSEEKKQEPAEGSPKEVQSKQSSSTRSRTKVQMQGVPVGRAVDLNALKGYNELIDDIEKLFDIKGELRSRNQWEIVFTDDEGDMMLVGDDPWPEFCNMVKRIFIWSKEEVKKMTPGNQLRMLLREVETTLTTTSKTDNHSN | soluble
11 | MGSSHHHHHHDYDIPTTENLYFQGGGGGGMRAAVVYKTDGHVKRIEEALKRLEVEVELFNQPSEELENFDFIVSVGGDGTILRILQKLKRCPPIFGINTGRVGLLTHASPENFEVELKKAVEKFEVERFPRVSCSAMPDVLALNEIAVLSRKPAKMIDVALRVDGVEVDRIRCDGFIVATQIGSTGYAFSAGGPVVEPYLECFILIPIAPFRFGWKPYVVSMERKIEVIAEKAIVVADGQKSVDFDGEITIEKSEFPAVFFKNEKRFRNLFGKVRSIG | soluble
12 | MSMKTTQEINKEDEELCNESKKFMDVYYDVMDRKREKIGFLYTQVSNAVWNGNPINGYDSICEFMKALPSTQHDIQSLDAQRLPEGVTGDMSGGMLLNVAGAVTVDGDSKRAFTQTLLLGVEDGKYKVKSDRFRYVD | not soluble
13 | MGSDKIHHHHHHMFRILTINPGSTSTKLSIFEDERMVKMQNFSHSPDELGRFQKILDQLEFREKIARQFVEETGYSLSSFSAFVSRGGLLDPIPGGVYLVDGLMIKTLKSGKNGEHASNLGAIIAHRFSSETGVPAYVVDPVVVDEMEDVARVSGHPNYQRKSIFHALNQKTVAKEVARMMNKRYEEMNLVVAHMGGGISIAAHRKGRVIDVNNALDGDGPFTPERSGTLPLTQLVDLCFSGKFTYEEMKKRIVGNGGLVAYLGTSDAREVVRRIKQGDEWAKRVYRAMAYQIAKWIGKMAAVLKGEVDFIVLTGGLAHEKEFLVPWITKRVSFIAPVLVFPGSNEEKALALSALRVLRGEEKPKNYSEESRRWRERYDSYLDGILR | not soluble
14 | MGSDKIHHHHHHMIVEKRRFPSPSQHVRLYTICYLSNGLRVKGLLAEPAEPGQYDGFLYLRGGIKSVGMVRPGRIIQFASQGFVVFAPFYRGNQGGEGNEDFAGEDREDAFSAFRLLQQHPNVKKDRIHIFGFSRGGIMGMLTAIEMGGQAASFVSWGGVSDMILTYEERQDLRRMMKRVIGGTPKKVPEEYQWRTPFDQVNKIQAPVLLIHGEKDQNVSIQHSYLLEEKLKQLHKPVETWYYSTFTHYFPPKENRRIVRQLTQWMKNR | not soluble
15 | MITCLPLLAGEGARRKGDIGMRNKNKRLAQYATELRRNMTDAEYALWYHLRNKLFCGIRFNRQVIIGHYIVDFCSRKLKLVIELDGIQHVEQEQYDLERTKFLTAQGYKVIRFWNDEVLKNIDNVLEAIYVEIEHLSPPHFGSSPHKWVEPRLEVLK | not soluble
16 | MSLELAQQWTQQRQALGERDDAMAALKTLDSSYAATTVFPPKGEVSLHERAGLYQGNEVNPPLAAAYRRELETQLLPRVARMLEAQIRGNMQNRERLLNSLRAYLMLNLRERRENGWLKDWVATDWSQRYAGNGTVQNGLNTHFARLLEQPFSYPLNETLVAQARQVLRSESLANVVYRVLREQARSLPEYRFGQHLGPQAGLFVGTDYVIPGFYTQQGYQQYFVVQGASLVNDILRDNWVLGEGSGISDMDLRRLMVELEQLYFRDYANFWSEAVGRLGLLPFNDAGEGADQVSGLLAANSPILQLLLEVRENTRFPVLAESAEALAEASDKAAEKGGKLGKAAAAAAGKARDALAKNLPDTAKKSLQRRFEPLHRLLDDNNGPAADLTPLLQALNELQLQLAGLARASQPEQEGHHHHHH | soluble
17 | MARILAIDDEDGILYIIKSALEKEGHEVTAVSNPLTIPKEKFCHYDLILLDVMMPEIDGFTLCKEIRDFVDSPIVFLTAKTMEKDLITGLSLGGDDYITKPFGIGELRARVSAHVRREHREKQNAFFLSGLTFHLSCKEIWYDDTSIAFTKSEYGICEYLALNHGQVFSREKIYENVFGYEGESDNQVIVEHIKNIRHKLSKYGMNPIETVWGIGYKWRK | not soluble
18 | MGDNENGDNLNNHQDSGSGSHHDAAPQQQQNNMSHQQQPQQQQHNEHNKQQQQQRDDVCRDFLKNICNRGSRCKFYHPSEAPPISDHDYNFCIDYQNRGCQRDNCRFVHAPRDEVERYKTTRELTLILARAIAAVGHGDTIGGIPICKEFQTGRCARGVNRCRYWHVNVDLERDRRNRGLPPSNDFGPGGGGGGMGGGGGSGGSGGGSGRFPPPPPPYGGGGRRRPYDDYDSDPIKRGRYGSDDRLMELEKRNAELSKEVDSLRRELQREHDRYEDLYALFRQQSGGAPAPPKAAAAASAVNDYYGTWGQKAPGW | soluble
